The record followed here is a protein production outcome set (Wang et al. 2014).

The nature of this data set: label from the status in PepcDB records.

“MRLYTRTGDKGKTSVIGGRLAKDDTRVVAYGTTDELNSFVGLAITQLDENTFADIRGELFKIQHELFDCGGDLAMLKVKEDRPYKAKQEIVDFLEQRIDAYIKEAPELERFILPGGSEAAASLHVCRTIARRAERYVVRLQQEGEINPIVLKYLNRLSDYFFAVARVVNSRLQVPDVEYERSAIVFREGKRKEDKK”: the protein production result is reported as “not failed”.
In the case of “MRMAATAPAFPELEGRHPCFSTTAEGHARAARLHLPVSPGCNIDCAFCIRDFNRRDQRPGVATRLLTPEQAVAIVARALELCPSINVVGIAGPGDPLATPHALQTFALVRERWPELVLCLSTNGLMLPDRIDEIAGLGISTLTVTVNAVDPQIQAQVTPKIAWQRKRLNGVVAGERLIANQLEGIARAAAHGLTVKVNTVLIPTVNDHHIETIAERVAAAGANLINIIPLIPQHGFAHLKPPGMLMRYAARTAAEKYLRVFTHCQRCRADACGIPGVSDYAQQLYGDDIVAEPTFSHG”, the protein production entry was “failed”.
“MRMFFSGLMESLKENKITFLWVLLFFLVGIVLGSYTVYYMSDFNRVEITTYFNNFLEFLGGNSVSYTSILVDSIKSILPMVAIIVLLGYTAVGTPIILMMDLAKGYVIGFTFSLIVSMLGSKGVMLVLSGLMLQNLIFIPIIMLISVLAIRHSVTKLKMGVSRDRVKLDVSRAYLNFQGLLSLIIISGILIETYISPNLIRLVISR”: the protein production result is on record as “failed”.
On to “MRMGLKADSWIKKMSLEHGMISPFCEKQVGKNVISYGLSSYGYDIRVGSEFMLFDNKNALIDPKNFDPNNATKIDASKEGYFILPANAFALAHTIEYFKMPKDTLAICLGKSTYARCGIIVNVTPFEPEFEGYITIEISNTTNLPAKVYANEGIAQVVFLQGDEMCEQSYKDRGGKYQGQVGITLPKILK”, for which the protein production entry is given as “failed”.
As to “MRMILMFDMPTETAEERKAYRKFRKFLLSEGFIMHQFSVYSKLLLNNTANNAMIGRLKVNNPKKGNITLLTVTEKQFARMVYLHGERNTSVANSDSRLVFLGDSYDQDLEHHHHHH”, the protein production entry was “failed”.
“MRMNIRVALPQAQVHWCRGWLQAAHADALMQALLDQVQWEVHRIRMFGRVVDSPRLSSWIGDADASYRYSGTQFAPQPWLEALQPVRTRLQDETGSPFNSVLVNRYRSGADAMGWHSDDEPELGAQPVIASLSLGAARRFAFKHRHDAALKQTLELGHGDLLLMGGDTQRHYKHALPRTVKPVGERINLTFRQIAVRVSQRLEHHHHHH”: the protein production result is “failed”.
The value for “MRNEAFDILKDIPKWKLIFWLLLAITLTPITELIIYRLVTSVIESSLTLTELGKEFIRIFGYEKYKGIKESLWMMIVSYLFLFSIFSSYLYIFYRHEKKLYYETCIKKMIEEIRYIANGNFNHKVSIVNHNYLEELAIGVNEIVEQLKVSIDEERQAEQAKSELITNVSHDLRTPLTSIVGYVNLIHHDNYRDEVELRYYIQVIYDKVTRLNALMNDLFEYTRVQNKELSLYSVPIDIVELLGQLTVQFRIQVQEANIECRPSFPSQKLMVLADGDKLVRVFENLIINAIAYGSEGRYIDLTAYESNNMITIDITNYGQPIPSTDLPHIFERFYRVEKSRSTNTGGSGLGLAIAKSIVELHKGTIEVYSDDEKTTFTVKLLPYKC” was “failed”; that for “MRNHPLGIYEKALAKDLSWPERLVLAKSCGFDFVEMSVDETDERLSRLEWTSAQRASLVSAMLESGVAIPSMCLSAHRRFPFGSRDEAVRQRAREIMTKAIRLARDLGIRTIQLAGYDVYYEEHDEGTRQRFAEGLAWAVEQAAAAQVMLAVEIMDTAFMNSISKWKKWDEMLSSPWFTVYPDVGNLSAWGNDVTAELKLGIDRIAAIHLKDTLPVTGDSPGQFRDVPFGEGCVDFVGIFKTLHELNYRGSFLIEMWTEKSSEPVLEIIQARRWIESRMQEGGFTC” was “failed”; that for “MRNIYDLANELERGIRALPEYKNLVEKKEAIATDAEASALFKEFTDFQEDFYAKMQAGTMPTAEEQAAVQELGQKVEANALLKEYLTAQQSLSVYLNDIERIIFKPLQELNN” was “failed”.
